Data taken from the DeepSol protein solubility set.

Assay: soluble on expression in E. coli; label from the status in PepcDB or PDB records

Row | Sequence | soluble on expression in E. coli
1 | MKDLGAEHLAGHEGVQLLGLLNVYLEQEERFQPREKGLSLIEATPENDNTLCPGLRNAKVEDLRSLANFFGSCTETFVLAVNILDRFLALMKVKPKHLSCIGVCSFLLAARIVEEDCNIPSTHDVIRISQCKCTASDIKRMEKIISEKLHYELEATTALNFLHLYHTIILCHTSERKEILSLDKLEAQLKACNCRLIFSKAKPSVLALCLLNLEVETLKSVELLEILLLVKKHSKINDTEFFYWRELVSKCLAEYSSPECCKPDLKKLVWIVSRRTAQNLHNSYYSVPELPTIPEGGCFDESESEDSCEDMSCGEESLSSSPPSDQECTFFFNFKVAQTLCFPSLEHHHHHH | not soluble
2 | MKDLIELFWLRYTELQSAVGKNESDKIAVLERELELLLERIVGRKTESSEDIREQFRFAIDLLNHEAEDLGCVQRNSELLRTLVDRYVGMPLKAKVVGDEDEDTLAWHHRHLILDEDMLNDLDEPVVIVSPGYRVSFANALDAFQRNAPEGLIGCHIAELVGVHRFQNILREKLDNCFKGDTSKYTYAEDENGRTVVKSLEMSPCYSSAYKLVGAMVVIREIADRRRRAAG | not soluble
3 | MKDQNGVASTDDSVLPSWSNPDVGQFIVSTYNEYEYKRIPFRELEFGCLLCRMRTFNHEGMKKHLRDHVVHKKSSCEHEKPGKTGIHHQVDKAGNGVMPENGQLVQCYIEIKLADCYTSWSNYESQNPIIFKIGFGEVIPGLDIGIPKMKVGEIATFHVSGKYGYGRAGFRGLIPRNASLTCKVRLFNCSWDSYAKIGVDRQILVQGDNVTKSKNGQTVTCHYVLILVDGTKIDSSRDRETPFKFKIGKGEVIKGWDQGVAQMSVKEKSKLTIAPAFGFEKGKLPAGIPA | not soluble
4 | MKDTFRLENQTIYFGTERAISASPQTIWRYLTETDKLKQWFPELEIGELGVNGFWRFILPDFEETMPFTDYAEEKYLGVTWDTGIIYFDLKEQAPHQTLLVFSESLPENFTTPRHKDIAGWSIVLNRLKQVVETPDAAPEKIDFPQIENHYLEKLTNLEN | soluble
5 | MKEDPRIIKTLSKLQKAFVMLLKTYDAGDINVRQISDEAGVTRGAFYSHFSDKKEFVNFTINELVGSLFNSSLEHHHHHH | not soluble
6 | MKEEAVRVIEEVLKQGRTAMVEYEAKQVLKAYGLPVPEEKLAKTLDEALEYAKEIGYPVVLKLMSPQILHKSDAKVVMLNIKNEEELKKKWEEIHENAKKYRPDAEILGVLVAPMLKPGREVIIGVTEDPQFGHAIMFGLGGIFVEILKDVTFRLVPITEKDARKMIQEIKAYPILAGARGEEPADIDAIVDMLLKVSKLVDDLKDYIKEMDLNPVFVYNKGEGAVIVDSRIILKPKD | soluble
7 | MKEEEKTRLVIVQGPTASGKSALALELAERIGGEIVNADSMQVYRGMDIGTAKPSQEERRRVPHHLYDIVDPKVNFTAADFREHASRAIADIERRGKRVILVGGTGLYIRILTQGLVASPGGDDNIRRELEDQAHGEGLESLHRRLAAVDPVAAARLHPNDGVRIVRALEVFLLTGRPLSAFQEAHRFADEPYRCLKLGITVERELLYRRVEERVDRMIAEGLVEEVRGLLSAGYPATLKAMGSIGYREICAHLAGEFSLDEAMRLIKQNTRQYAKRQMTWFRRDSEIIWVEYPGKFDSILSTVMGFYHLEHHHHHH | soluble
8 | MKEKIPFYNEKEFNEMMKKTKKGTFSGWYIINPENKSVEFSGNFNRQFKLNKPVIPVNTEYVTRKEFNEYKDSNDQRLTKIENKVDKLEVKVDKLEEKVDKLEAKVDKLEEKVDKLEAKVDKLEEKVDKLEAKVDSGFEMLAKILAAINKRLDSIEGRLDKIEPPKLEHHHHHH | not soluble
9 | MKETDLAFFRSFKNRILKEINVMQLCRVVTVKGARADVQPMALKSDGGKRALILNALITKHCQSDISQGAVVVVVFCDRDIDNYRSSADYSLSSDRMHSQNDAVIMGVIA | not soluble
10 | MKEVRIVFQPGEISVPVAAGTTIMEAMNRSGLGEDFPCGGRGKCGKCRVKVREGREDFTAIDEDHLTAQELAEGVRLACATKINRDMMVEMQSPKKLQHHILIDSAARAFHIHPHLVKVFAEIAQPSLSEHKSDWQRLQESLAGLGCSVHDLQAPLSVLRRLPDTLRESTNRVTTIVYGSQVLGVEQGDTTGTLLGMAFDIGTTTIVGYLLDLNSGRELEVVSTLNPQAQYGGDVISRITFAGKEEKGLDTLHQAVTGAMNRLIGEAVDKAGVSRTQLYGISVAANTTMHHLFLGITPRSIGMSPYVSAINQGLVVAPGELGLEINKAGRVFVLPNIAGFVGADTTAVLLASDLEKSDHVTLILDIGTNGEIVLGSKNRMVACSAAAGPAFEGAQITSGMRGADGAIDHISFDHGLSYTVIGNGRPIGICGSALLDGVAGFVELGMINKRGKFLEPEKLTHPSALKLKDRLIKYEETWAFQLVEAGQTRHGRPILITQNDIRELQLAKGAIAAGVRILQEAMGIECEDIKEVLLAGAFGNYLNPHSACVIGLIPRELESRIKTIGNAAGNGAKIALLSAQEFSRAKDLAGGVSFVELGSYPGFNTIFAQNTYFKLD | soluble
11 | MKFEFRTLVLISLAVVVVLSGCSQSPSSGGVPEYSGSKVYSAPTLYSQLIGVPTEGVSVKAYTVENANAKDILSWYKEKLSDYEIVNEMSVVQMTTPQGSAEWGAILFKKGDKGVGIWAMSGSGVEGGGAVYFIVEGPIDKLTGESGEAGGAGEQLPASDQASGEEPVKRYPGSVMLSYYKDTSNPLEVSIGIDYGTEDSAEKVAHWYKQELQAEGWVLESESSDDSSIDLAFSRGKEYIDIYIIEPYEGFLTRKLTSTTGRRGCHLTTWSVERSRWRGIPAQLCWNT | not soluble
12 | MKFIQNLTKIHQSTSHMAHAHRSDSAVDSQVASTLREDTVARFSMLMKHPRSLARPTVTWRPPSLKLVGLHSTISPQPHLVASISRRRIGPSVKARLKGFGVRQQPAYLMSVRISDSKSNNVSFEHAEQWMLQLVGPQYAECIHMITDHGQCPVFVWIVGGDFQPLPSPASMFQTFQAAA | not soluble
13 | MKFKTNKLSLNLVLASSLLAASIPAFAVTGDTDQPIHIESDQQSLDMQGNVVTFTGNVIVTQGTIKINADKVVVTRPGGEQGKEVIDGYGKPATFYQMQDNGKPVEGHASQMHYELAKDFVVLTGNAYLQQVDSNIKGDKITYLVKEQKMQAFSDKGKRVTTVLVPSQLQDKNNKGQTPAQKKGN | soluble
14 | MKFRRSGRLVDLTNYLLTHPHELIPLTFFSERYESAKSSISEDLTIIKQTFEQQGIGTLLTVPGAAGGVKYIPKMKQAEAEEFVQTLGQSLANPERILPGGYVYLTDILGKPSVLSKVGKLFASVFAEREIDVVMTVATKGIPLAYAAASYLNVPVVIVRKDNKVTEGSTVSINYVSGSSNRIQTMSLAKRSMKTGSNVLIIDDFMKAGGTINGMINLLDEFNANVAGIGVLVEAEGVDERLVDEYMSLLTLSTINMKEKSIEIQNGNFLRFFKDNLLKNGETESHHHHHH | soluble
15 | MKFSRPVLSVNHLILGKKCDVCRKKCSGDVLKANDKYFHINCFQCKKCGRNLGETGFYTTPENAYLCPDDFRAVSKEITVKTTTQQAHASSSSAATPKSPEKSNGTTDVSSSGAANATLQQISPLGSPTTCAACDQALHSGQVLLALGLSWHVYCFKCSECSAVLHGEYMSHHGKPLCLRDYNEKFGVKCYECEKFIAGKVLQAGGYKFHPTCARCSRCGSHFGDGEEMYMQGDEIWHPSCEHARTTENIAPTGRAATLSRNEPKYQSTFGQHQAYMYLLPEVEQTYLRHPVMNAKEPNAPQYHVPQGPIKIRKSRMSMLKTGMQRLTEDLEKNIPRPKSPHMDNEEPIELAHYPAAHVPDPDTLPAIEREDFPAPQFPYAVEELKRRLSTSSVENEISDDEYSESDKVDEDKLRKTVETLEKYNDSSIAHVIRQNIEDSHKKQRLPLHWDPRNASRTPSGKKMPHLKFRYDVPINASPSRHLNRPRPWVVWQGGERDQGNNTLPCFHIPEDSRANTLRAATLPTEFGQNLSLENLDTTISSHYSEHSTTESGTAGGPRSAGGAVLRSSLPDMSKPAKQYDLLFLQTTNSDLPEDVDRQHLERHLPRDQFEEIFKMSLIEFYKLPEWKRINLKRKHKLF | not soluble
16 | MKFTWIALPGVLLLSACSSSQPNAPRPPRIGMPNPAAVYCEQQGGTLMPVQTPQGVRSDCKLPNGEIIDEWTLWRREHPDTKK | not soluble
17 | MKGPYKHFMQKEIFEQPDSAFNTMRGRIDFENCVVTLGGLKSWLSTIRRCRRIIMIACGTSYHSCLATRSIFEELTEIPVSVELASDFLDRRSPVFRDDTCVFVSQSGETADSILALQYCLERGALTVGIVNSVGSSMSRQTHCGVHINAGPEIGVASTKAYTSQYIALVMFALSLSNDSISRKGRHEEIIKGLQKIPEQIKQVLKLENKIKDLCNSSLNDQKSLLLLGRGYQFATALEGALKIKEISYMHSEGVLAGELKHGILALVDEDLPIIAFATRDSLFPKVMSAIEQVTARDGRPIVICNEGDAIISNDKVHTTLEVPETVDCLQGLLNVIPLQLISYWLAVNRGIDVDFPRNLAKSVTVE | soluble
18 | MKGVNMFERFTDRARRVIVLAQEEARGLNHNYIGTEHILLGLIHEGEGVAAKALESMGISLEAVRQEVEEIIGHGSEPPAGHIPFTPRAKKVLELSLREGLQMGHKYIGTEFLLLGLIREGDGVAAQVLVKLGADLPRVRQQVIQLLS | not soluble
19 | MKGVNQQKKRLKVMTPLEKYQQDLNQEGFMHDSAQRNAVEHLDDLYRRFLELKVPEEPAKKSWKRFFKKEKPQKLTPEKGLYFWGGVGRGKTYLVDTFYDALPTERKMRIHFHRFMQRVHDELGELKQQSDPLLIVADKFKQETDIICFDEFFVSDITDAMILATLLEALFARGITLVATSNILPQDLYRNGLQRARFLPAISLIEQHCDIINVDSGVDYRLRTLEQAEIYHYPLDSDAETNMKGYFLQLASGCDYESTQIEINHRLIEVKAEGDGVVHFDFASLCESARSQHDYIELSRLYHTVLLSNVKIMGEVNDDAARRFIAMVDEFYERNVKLIISAEVDLTSIYQKGRLTFEFQRCQSRLIEMQSHEYLSKEHLSLEHHHHHH | not soluble
20 | MKHPIRKTLVTLGLLLTLCLPTPVAASSRSWKSWFIEQYFWLKRDKSYYSKQDDPSFQRYLDACREQSDKPYQLDTNLVNGPLVQENLYGMQVYSWNDNGKPDQKTIIYLAGGSYLNNPTTYHINMLKTLSTSLDAKIVLPIYPKAPRYTYNYTMPKLVNLYQHYYHKNQNVFLMGDSAGGGLALGLAHALHNESVPQPKQLVLLSPWLDVTMSHPEIPEYEDADPILSSWGLKRVGELWAYSADNTNHIYVSPKNGPITYLPPITLFTGTREIFYPDIRDYAAKLKAANHNITFITQEGMNHVYPIYPIEEAKTAQYQIIDAINKTP | not soluble
21 | MKIACVVLTYNRLSLLKRCIDSIRNQTYQEFDIYVIDNASTDGTAHWLSLQNDLTVISIHENKGPANGFYTCLQVPYDDGYDWIWMMDDDGVADKGQLEELLNKTVKNNLYFTNALVCNIDNPEKIAFGAKKTIDTQREELIKGNINPFNGTFIHRRVIEKNGNIMREMYMYGCETEYQLRAIKNGFQVATVTSAIHYHPSPKVSICHLIPYIKYCSIIDYPIDTLFYIRNKAYINYTYLGFKRSLFMITSYSLYYLFRLKIRKVLLFWKYYREGCKGVVGNKKQ | soluble
22 | MKIADGVYVHFIPTQKYKTNRIVFRMTGSLNKQTIAKRALVSQMLATANQTYPTVQSFKERLASLYGTQLSTKVSTKGLTHSVDIELTYLKDFFIPMNTSLFWEVLGFLMDCLYNPLSIVAQYQNKVFDIEKQNLMTYLDVDTENNYYYSEVQGRELYFVNEALKVPKYGRVELVEAETSFTAYQEFQSMLTKDRIDIFMVGEFDDYQVLRGLHRFPLEGRQVDLQFSYNQSYSKVVKEKIETRQTSQSILQLGYQFPCQYGDKDYFALIVFNGMLGEFAHSALFTKIREKEGLAYSIGSQFDAFTGLLEIYAGIEKSNRNQAMRGIIRELNHIKLGRFSSSLFNQTKKIIRMNALLSEDHALTLVEQHFNKVIFGDKKISLEDWLDKIEKVTKKDVCRIARQVKLQSLFFLEGVS | not soluble
